From publication PMC10957929
Changes are numbered by the printed parent chain.

What was measured:
[1] = target: T1, GST-DRG9Nip (N186S) N186S (Oryza sativa ssp. japonica cv. Nipponbare) (UniProt Q69P58); assay: EMSA; conditions: 20 mM Hepes pH 7.5, 20 mM KCl2 (so in the source), 1 mM MgCl2, 10 mM ZnCl2, 5 mM DTT, 10% glycerol, 0.1% NP-40, room temperature, 1 h; 6% native PAGE, 0.5x TBE
T1 sequence: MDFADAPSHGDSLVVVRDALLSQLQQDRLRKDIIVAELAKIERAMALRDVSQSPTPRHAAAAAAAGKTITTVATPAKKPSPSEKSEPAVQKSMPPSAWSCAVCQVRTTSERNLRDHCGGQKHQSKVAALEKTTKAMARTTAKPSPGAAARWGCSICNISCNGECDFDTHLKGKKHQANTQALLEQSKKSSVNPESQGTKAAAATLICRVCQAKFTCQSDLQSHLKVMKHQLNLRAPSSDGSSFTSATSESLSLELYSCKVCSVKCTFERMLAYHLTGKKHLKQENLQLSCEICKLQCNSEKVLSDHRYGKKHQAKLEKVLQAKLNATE

[2] = target: T2, GST-DRG9Nip (F267G) F267G (Oryza sativa ssp. japonica cv. Nipponbare) (UniProt Q69P58); assay: EMSA; conditions: 20 mM Hepes pH 7.5, 20 mM KCl2 (so in the source), 1 mM MgCl2, 10 mM ZnCl2, 5 mM DTT, 10% glycerol, 0.1% NP-40, room temperature, 1 h; 6% native PAGE, 0.5x TBE
T2 sequence: T1 sequence with S186N, F267G

With “GGGCUCAAAUUAAUUAGCCAGUGAAAAAUCAAAUUACAGAGUUGCUUAAUUUUUUUACUAGUAGAACGCAACAGUAAAAAGAAUUAACAGCAGUGAAUUAUUAGUUAAUUAGCUAGGGAGUUGAAAUAGUUUAGCGGUCAUGCACUACUGAUUUUUAAUUAGUGCAGACAACGACCGCGUGUGUGUAUAUGCAUGUAUACCUUUUACUGUAUCUUCAGAUUGUGUAUAUAUAUCAUAUAUGUACAGGAAAAGAUUUAUAUAUCAUACAUAUUUUGUUGU [OsNCED4 3'-UTR RNA]” as the sequence, how does the binding [1] read?
The binding was “binds”.

And the binding [2]?
Its binding is “binds more weakly”.
